Data taken from patent US20230242671A1 (Eli Lilly, published 2023).

Experiments:
Protein A [1] = biological target: T1, Protein A (UniProt P38507 37-327, biotin (site not stated)); assay: ELISA, Biotin-Protein A
T1 construct: Reagent; also called Biotin-Protein A; Protein A ligand
Method: (§1) Binding of the heavy chain Fc region formats of Table 1b for exemplified IgG heteromabs to Protein A ligand may be assessed via ELISA. Briefly, 96-well flat bottom Elisa plates are coated with 2 ug/mL goat anti-human-kappa protein at 100 ul/well and incubated overnight at 4° C. The following day, plates are washed 3× with wash buffer 0.05% PBS-Tween 20 (PBS-T)) and blocked for 1 hr with blocking buffer (casein, 200 µL/well) at room temperature (RT). Plates are washed 3× with wash buffer, and binding proteins (as shown in Table 4) are added to individual wells at 10 μg/mL and serially diluted 1:3, at a volume of 100 uL/well in PBS-T. Plates are incubated at RT for 1 hr, and washed 3× with wash buffer. Biotin-Protein A at 0.5 ug/ml is added at 100 uL/well and plates are incubated for 1 hr at RT, washed 3×, and 100 uL/well of streptavidin labeled alkaline phosphatase (SA-AP) is added to each well. Plates are incubated 30 min at RT. Plates are then washed 3×, and 100 uL/well of p-Nitrophenyl Phosphate, Disodium Salt (PNAP)(Thermo Fisher Scientific) substrate is added. Reactions are stopped and optical density is measured using a colorimetric microplate reader set to 405 nm.

Protein A [2] = biological target: T1, Protein A; assay: ELISA, antibody titrated on goat anti-human-kappa, Biotin-Protein A at 0.5 ug/ml
Method: as §1

B1: cMet-BAH10 IgG1 heteromab (RE on cMet heavy chain Fc region only) (bispecific antibody)
heavy 1: EVQLVESGGGLVQPGGSLRLSCAASGYTFTSYWLHWVRKAPGKGLEWVGMIDPSNSDTRFNPEFKDRFTISADTSKNTAYLQMNSLRAEDTAVYYCATYRSYVTPLDYWGQGTLVTVSSASTKGPSVFPLAPSSKSTSGGTAALGCLVKDYFPEPVTVSWNSGALTSGVATGPAVLQSSGLYSLSSVVTVPSSSLGTQTYICNVNHKPSNTKVDKKVEPKSCDKTHTCPPCPAPEAAGGPSVFLFPPKPKDTLMISRTPEVTCVVVDVSHEDPEVKFNWYVDGVEVHNAKTKPREEQYNSTYRVVSVLTVLHRDWLNGEEYKCKVSNKALPAPIEKTISKAKGQPREPQVYTLPPSREEMTDNQVSLTCLVKGFYPSDIAVEWESNGQPENNYKTTPPVLMSDGSFFLASKLTVDKSRWQQGNVFSCSVMHEALHNHYTQKSLSLSPGK
light 1: RIQMTQSPSSLSASVGDRVTITCKSSQSLLYTSSQKNYLAWYQDKPGKAPKLLIYWASTRESGVPSRFSGSGSGTDFTLTISSLQPEDFATYYCQQYYAYPWTFGQGTKVEIKRTVAAPSVFIFPPSDEQLKSGTASVVCYLNNFYPREAKVQWKVDNALQSGNSQESVTEQDSKDSTYSLWSTLTLSKADYEKHKVYACEVTHQGLSSPVTKSFNRGEC
heavy 2: QVQLVQSGAEVKKPGSSVKVSCKASGYTFTTYYLHWVRYAPGQGLEWMGWIYPGNVHAQYNEKFKGRVTITADKSTSTAYMELSSLRSEDTAVYYCARSWEGFPYWGRGTTVTVSSASTKGPSVFPLAPCSKSTSGGTAALGCLVKDYFPEPVTVSWNSGALTSGVHTFPAVLQSSGLYSLSSVVTVPSSSLGTQTYICNVNHKPSNTKVDKKVEPDSGDKTHTCPPCPAPEAAGGPSVFLFPPKPKDTLMISRTPEVTCVVVDVSHEDPEVKFNWYVDGVEVHNAKTKPREEQYNSTYRVVSVLTVLHQDWLNGKEYKCKVSNKALPAPIEKTISKAKGQPRRPRVYTLPPSREEMTKNQVSLVCLVKGFYPSDIAVEWESNGQPENNYKTTPPVLDSDGSFFLYSVLTVDKSRWQQGNVFSCSVMHEALHNHYTQKSLSLSPGK
light 2: DIQMTQSPSSLSASVGDRVTITCKASQNVGINVAWYQRKPGDAPKSLISSASYRYSGVPSRFSGSGSGTDFTLTISSLQPEDFATYFCQQYDTYPFTFGQGTKVEIKRTVAAPSVFIFPPSKEQLKSGTASVVCLLNNFYPREAKVQWKVDNALQSGNSQESVTEQDSKDSTYSLSSTLTLSKADYEKHKVYACEVTHQGLSSPVTKSFNRGEC
notes: also called cMet-BAH10 IgG1 heteromab (with RE HC Fc format on cMet arm only)
fold decrease in binding against cMet-BAH10 IgG1 heteromab (Protein A [1]): ~1.2 fold | EC50 (Protein A [2]): 0.56 nM

B2: cMet mAb (RE on both HCs) (antibody, human IgG1, kappa, L234A L235A)
heavy: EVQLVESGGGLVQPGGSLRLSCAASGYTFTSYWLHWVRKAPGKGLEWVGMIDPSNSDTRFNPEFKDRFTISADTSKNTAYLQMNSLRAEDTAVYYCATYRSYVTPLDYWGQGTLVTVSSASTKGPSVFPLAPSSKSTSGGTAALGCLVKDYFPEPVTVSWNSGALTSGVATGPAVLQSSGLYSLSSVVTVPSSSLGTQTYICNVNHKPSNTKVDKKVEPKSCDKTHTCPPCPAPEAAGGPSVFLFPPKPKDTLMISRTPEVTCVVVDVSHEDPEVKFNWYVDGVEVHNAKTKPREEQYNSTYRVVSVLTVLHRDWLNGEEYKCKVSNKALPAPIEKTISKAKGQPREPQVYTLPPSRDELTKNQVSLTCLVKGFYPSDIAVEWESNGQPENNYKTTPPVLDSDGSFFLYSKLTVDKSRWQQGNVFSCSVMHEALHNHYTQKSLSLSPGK
light: B1 light 1
notes: IgG1 / kappa; also called cMet parental mAb (with RE HC Fc format on both HCs)
fold decrease of binding affinity against parental (Protein A [1]): ~2 fold | EC50 (Protein A [2]): 0.98 nM
